# Data from the RNAGym collection of RNA variant scans (doi:10.1073/pnas.2313332121).
# B1: TPR t1 (parent)
# chain: GACCAAUCUGCCCUCAGAGCUCGAGAACAUCUUCGGAUGCAGAGGAGGCAGGCUUCGGUGGCGCGAUAGCGCCAACGUCCUCAACCUCCAAUGCAUCCCACCACAUGAUGAUGCCUGAAGAGCCUUGGUUUUUUG
# Variants of: B1
# Assay: polymerase ribozyme fitness, log enrichment relative to wild type (log ratio); higher = more active; in vitro selection for triplet polymerase activity
# Outline: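 A single round of triplicate in vitro selection, including frozen incubation at −7 °C, was applied to PCR-built, transcribed mutant libraries of each subunit of a heterodimeric triplet polymerase ribozyme. Illumina sequencing of input and output libraries retained genotypes with ≥10 input reads and ≥1 read per output. Fitness is the base-2 logarithm of genotype enrichment divided by wild-type enrichment, from inverse-variance-weighted replicate averages.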
row,Variant,polymerase ribozyme fitness (log ratio)
1,GACCAAUCUGCCCUCAGAGCUCGAGAACAUCUUCGGAUGCAGAGGAGGCAGGCUUGUGUGGCGCAAUAGCGCCAACGUCCUCAACCUCCAAUGCAUCCCAGCACAUGAUGCUGCCUGAAGAGCCUUGGUUUUUUG,-6.81
2,GACCAAUCUGCCCUCAGAGCUCGAGAACAUCUUCGGAUGCAGAGGAGGCAGGCUUGGGUGGCGCGAUAGCGCCAACGUCCUCAAUCUCCAAUGCAUCCCACCACAUGAUGAUGCCUGAAGUGCCUUGGUUUUUUG,0.921
3,GACCAAUCUGCCCUCAGAGCUCGAGAACAUCUUCGGAUGCAGAGGAGGCAGGCUUGGGUGGCGCGAUAGCGCCAACGUCCUCAACCUCCAAUGCAUACCACCACAUGAUGAUGCCUGAAGAGCCUUGGUUUUUUG,-5.24
4,GACCAAUCUGCCCUCAGAGCUCGAGAACAUCUUCGGAUGCAGAGGAGGCAGGCUUGGGUGGCGCGAUAGCUCCAACGUCCUCAACCUCCAAUGCAUCCCACCACAUGAUGAUGCCUGAAAAGCCUUAGUUUUUUG,-4.03
5,GACCAAUCUGCCCUCAGAGCUCGAGAACAUCUUCGGAUGCAGAGGAGGCAGGCUUGGGUGGCGCGAUAGCGCCAACGUCCUCAACCUCCAAUUCAUCCCACCACAUGAUGAUGCCUGAAGAGCCUUGGUUUUUUU,-3.52
6,GACCAAUCUGCCCUCAGAGCUCGAGAACAUCUUCGGAUGCAGAGGAGGCAGGCUUGGGUGACGCGAUAGCGCCAACAUCCUCAACCUCCAAUGCAUCCCACCACAUGAUGAUGCCUGAAGAGCCUUGGUUUUUUG,0.026
7,GACCAAUCUGCCCUCAGAGCUCGAGAACAUCUUCGGAUGCAGAGGAGGCAGGCUUGGGUGGCGCGAUAGCGCCAACGUCCUCAACCUCGAAUGCAUCCCACCACAUGAUGAUGCCUGAAGAACCUUGGAUUUUUG,-4.09
8,GACCAAUCUGCCCUCAGAGCUCGAGAACAUCUUCGGAUGCAGAGGAGGCAGGCUUGGGUGGCGCGAUAGCGCCAACGUCCUCAACCUCCAAUGCAUCACACCACAUGAUGAUGCCUGAAGAGCCUUGGUUUUUUG,-3.95
9,GACCAAUCUGCCCUCAGAGCUCGAGAACAUCUUCGGAUGCAGAGGAGGCAGGCUUGGGUGGCGCGAUAACGCCAACGUCCUCAACCUCCAAUGCAUCCCACCACAUGAUGAUGCCUGAAGAGCCUUGGUUUUUUG,-2.86
10,GACCAAUCUGCCCUCAGAGCUCGAGAACAUCUUCGGAUGCAGAGGAGGCAGGCUUGGGUGGCGCGAUAUCGCCAACGUCCUCAACCUCCAAUGCAUCCCUCCACAUGAUGAUGCCUGAAGAGCCUUGGUCUUUUG,-0.344
11,GACCAAUCUGCCCUCAGAGCUCGAGAACAUCUUCGGAUGCAGAGGAGGCAGGCUUGGGUGGCGCGAUAGCGCCAACGUCCUCAACCUCCAAUGCAUCCCACCACAUGAUGAUCCCUGAAGAGCCUUGGUUUUGUG,-2.55
12,GACCAAUCUGCCCUCAGAGCUCGAGAACAUCUUCGGAUGCAGAGGAGGCAGGCUUGGGUGGCACGAUAGCGCCAACUUCCUCAACCUCCAAUGCAUCCCACCACAUGAUGAUGCCUGAACAGCCUUGGUUUUUUG,0.612
13,GACCAAUCUGCCCUCAGAGCUCGAGAACAUCUUCGGAUGCAGAGGAGGCAGGCUUGGGUGUCGCGAUAGCGCUAACGUCCUCAACCUCCAAUGCAUCCCACCACAUGAUGAUGCCUGAAGAGCCUUGGUUUUUUG,-3.17
14,GACCAAUCUGCCCUCAGAGCUCGAGAACAUCUUCGGAUGCAGAGGAGGCAGGCUUGGGUGGCGCGAUAGCGCCAACGUCCUCAACCUCCAAUGCAUCCCACCACAUGAUUAUGCCUAAAGAGCCUUGGUUUUUUG,-4.5
15,GACCAAUCUGCCCUCAGAGCUCGAGAACAUCUUCGGAUGCAGAGGAGGCAGGCUUGGUUGGCGCGAUAGCGCCAACGUCCUCAACCUCCUAUGCAUCCCACCACAUGAUGAUGCCUGAAGAGCCUUGGUUUUUUG,-1.92
16,GACCAAUCUGCCCUCAGAGCUCGAGAACAUCUUCGGAUGCAGAGGAGGCAGGCUUGGGUGGCGCGAUAGCACCAACGUCCUAAACCUCCAAUGCAUCCCACCACAUGAUGAUGCAUGAAGAGCCUUGGUUUUUUG,-3.76
17,GACCAAUCUGCCCUCAGAGCUCGAGAACAUCUUCGGAUGCAGAGGAGGCAGGCUUGGGUGGCGCGAUAGCGCCAACGUCCUCAACCUCUAAUGCAUCCCACCACAUGAUGAUGCCUGAAGAGCCUUGGUUUUUUG,-0.286
18,GACCAAUCUGCCCUCAGAGCUCGAGAACAUCUUCGGAUGCAGAGGAGGCAGGCUUGGUCGGCGCGAUAGCGCCAACGUCCUCAACCUCCAAUGCAUCCCACCACAUGAUGAUGCCUGAAGAGCAUUGGUUUUUUG,1.88
19,GACCAAUCUGCCCUCAGAGCUCGAGAACAUCUUCGGAUGCAGAGGAGGCAGGCUUGGGUGGCGCGAUAGCGCCAACGUCCUCAACCUCCAAUGCAUCCCAUCACAUGAUGAUGCCUGAAGAGCCUUGGUCUUUUG,0.475
20,GACCAAUCUGCCCUCAGAGCUCGAGAACAUCUUCGGAUGCAGAGGAGGCAGGCUUGGGUGGCGCGAUAGCGCCAACGUCCUCAACCUCCAAUGAAUCCCACCACAUGAUGAUGCCUGAAGAGCCUUGGUUUUUUG,-0.555
21,GACCAAUCUGCCCUCAGAGCUCGAGAACAUCUUCGGAUGCAGAGGAGGCAGGCUUGGGUGGCGCGAUAGCGCCAACGUCCUCAACCUCCAAUGCAUACCACCACAUGAUGAUGCCUGAAGAACCUUGGUUUUUUG,-4.86

row,Variant,polymerase ribozyme fitness (log ratio)
1,GACCAAUCUGCCCUCAGAGCUCGAGAACAUCUUCGGAUGCAGAGGAGGCAGGCUUGGGUGGCGCGAUAGCGCCAACGUCCUCAACCUCCAAUGCAUCCCACCACAUGAUGAUACCUGAAGAGCCUUGGUUUUUUG,-1.08
2,GACCAAUCUGCCCUCAGAGCUCGAGAACAUCUUCGGAUGCAGAGGAGGCAGGCUUGCGUGGCGCGAUAGCGCCAACGUCCUCAACCUCCAAGGCAACCCACCACAUGAUGAUGCCUGAAGAGCCUUGGUUUAUUG,-3.72
3,GACCAAUCUGCCCUCAGAGCUCGAGAACAUCUUCGGAUGCAGAGGAGGCAGGCUUGGGUGGCGCGAUAGCGCCAACGUCCUCAACCUCCAAUGCAUCCCACCACAUGAUCAUGCCUGAAGAGCCUUGGUUUUUUG,-3.6
4,GACCAAUCUGCCCUCAGAGCUCGAGAACAUCUUCGGAUGCAGAGGAGGCAGGCUUGGGUGGCGCGAUAGCGCCAACGUCCUCAACCUCCAAUGCAUCCCACCACAUGAUUGUGCCUGAAGAGCCUUGGUUUUUUG,-2.16
5,GACCAAUCUGCCCUCAGAGCUCGAGAACAUCUUCGGAUGCAGAGGAGGCAGGCUUGGGUGGCGCGAUAGCGCCAACGUCCUCAACCUCCAAUCCAUCCCACCACAUGAUGAUGCCUGAAGAGCCUUGGUUUUUUG,-1.86
6,GACCAAUCUGCCCUCAGAGCUCGAGAACAUCUUCGGAUGCAGAGGAGGCAGGCUUGGGUGGCGCGAUAGCGCCAACGUCCUCAACCUCCAAUACAUCCCACCACAUGAUGAUGCCUGAAGAGCCUUGGUUUUUUG,-1.61
7,GACCAAUCUGCCCUCAGAGCUCGAGAACAUCUUCGGAUGCAGAGGAGGCAGGCUUGGGUGGCGCGAUAGCGCCAACGUCCUCAACCUCCAAUGCAUCCCACCACAUGAUGAUGCCUGAAGAGCGUUGGUUUUUUG,0.656
8,GACCAAUCUGCCCUCAGAGCUCGAGAACAUCUUCGGAUGCAGAGGAGGCAGGCUUGGGUGGCGCGAUAGCGCCAACGUCCUCAACCUCCAAUGCAUCCCACCACAUGAUGAUGCCUGAAGAGCAUUGGUUUUUUG,1.73
9,GACCAAUCUGCCCUCAGAGCUCGAGAACAUCUUCGGAUGCAGAGGAGGCAGGCUUGGGUGGCGCGAUAGCGCCAACGUCCUCAACCUCCAAUGCAUCCCACCACAUGAUGAUGCUUGAAGAGCCUUGGUUUUUUG,-1.4
10,GACCAAUCUGCCCUCAGAGCUCGAGAACAUCUUCGGAUGCAGAGGAGGCAGGCUUGGGUGGCGCGAUAGCACCAACGUCCUCAACCUCCAAUGCAUCCCACCACAUGAUUAUGCCUAAAGAGCCUUGGUUUUUUG,-5.02
11,GACCAAUCUGCCCUCAGAGCUCGAGAACAUCUUCGGAUGCAGAGGAGGCAGGCUUGGGUGACGCGAUAGCGCCAACGGCCUCAACCUUCAAUGCAUCCCACCACAUGAUGAAGCCUGAAGAGCCUUGGUUUUUUG,-0.105
12,GACCAAUCUGCCCUCAGAGCUCGAGAACAUCUUCGGAUGCAGAGGAGGCAGGCUUGGGUGGCGCGAUAGCGCCAACGUCCUCAACCUCCAAUGCAUCCCACCACAUGAUGAUGCCUGAAGAGCAUUGGUUAUUUG,1.66
13,GACCAAUCUGCCCUCAGAGCUCGAGAACAUCUUCGGAUGCAGAGGAGGCAGGCUUGGGUGACGCGAUAGCGCCAACGUCCUCAACCUCCAAUGCAUCCCACCACAUGAUGAUGCCUGAAGAGCCUUGGUUUUUUG,-2.31
14,GACCAAUCUGCCCUCAGAGCUCGAGAACAUCUUCGGAUGCAGAGGAGGCAGGCUUGGGUGUCGCGAUAGCGCCAACGUCCUCAACCUCCAAUGCAUCCCACCACAUGAUGAUGCCUGAAGAGCCUUGGUUUUUUG,-2.32
15,GACCAAUCUGCCCUCAGAGCUCGAGAACAUCUUCGGAUGCAGAGGAGGCAGGCUUGGGUGGCGCGAUAGCGCCAACAUCCUCAACCUCCAAUGCAUCCCACUACAUGAUGAUGCCCGAAGAGCCUUGGUUUUUUG,-3.2
16,GACCAAUCUGCCCUCAGAGCUCGAGAACAUCUUCGGAUGCAGAGGAGGCAGGCUUGGGUGGCCCGAUAGCGCCAACGUCCUCAACCUCCAAUGCAUCCCACCACAUGAUGAUGCCUGAAGAGCCUUGGUUUUUUG,-2.95
17,GACCAAUCUGCCCUCAGAGCUCGAGAACAUCUUCGGAUGCAGAGGAGGCAGGCUUGGGUGGCGCGAUAGCGCCAACCUCCUCAACCUCCAAUGCAUCCCACCACAUGAUGAUGCCUGAAGAGCCUUCGGUUUUUG,-0.438
18,GACCAAUCUGCCCUCAGAGCUCGAGAACAUCUUCGGAUGCAGAGGAGGCAGGCUUGGGUGGCGCGAUAGCGCCAACGUCCUCAACCUCCAAUGCAUCCCACCACAUUAUGAUGCCUGAAGAGCCUUGGUUUUUUG,-5.02
19,GACCAAUCUGCCCUCAGAGCUCGAGAACAUCUUCGGAUGCAGAGGAGGCAGGCUUGGGUGGCGCAAUAGCGCCAACGUCCUCAACCUCCAAUGCAUCCCACCACAUGAUGAUGCCUGAAGAGCCUUGGUUUUUUG,-4.66
20,GACCAAUCUGCCCUCAGAGCUCGAGAACAUCUUCGGAUGCAGAGGAGGCAGGCUUGGGUGUCGCGAUAGCGCCAACGUCCUCAACCUCCAAUGCAUCCCACCACAAGAUGAUGCUUGAAGAGCCUUGGUUUUUUG,-5.22
21,GACCAAUCUGCCCUCAGAGCUCGAGAACAUCUUCGGAUGCAGAGGAGGCAGGCUUGGGUGGCGCGAUAGCGCCAACGUCCUCAACCUCCAAUGCAUCCCACCACAUGAUGAUGCCUAAAGAGCCUUGGUUUUUUG,-2.32
